Measured values reported in a protein production outcome set (Wang et al. 2014).

Assay: label from the status in PepcDB records

Sequence | protein production
MAESIFRKLRDGGEEGELAPALTIEETVASPFGLDVSGYLLTNLSSSILAGKSSSQGLVLITFSRSPSFYLQLLKQKGIVVSSSSKWIRILDCYTDPLGWIDQSSTSFSEGSSLIKLHKCVSDLKKLFSSIIEAGRVRSLSKGLYEIKSDCFGAELVGTGKTRFCVAIDSKREVIIYLNFESAQISSVFWSLNTDLHQEKVTNALEYISTMKANLEPLCPSSDGQRNALENLFSVHQDFGKGRFHVRFKLRKGRVRVMSEEYHVDQSGINFSPISSVDTVIAATKSLLPKASYLDLLFNYLVQFNLQLSEKERVEKEKVVLPFEHQDDGKSNEIYDGRRSLVDGKIETTPLSSMELQTDVVSSGKGGEIIYFRDSDDEHPDSDEDPDDDLDI | not failed
MAESPRRETLIGGAVVLLGVALLAATSINRHDASGQAGAYQVEAVFNRTDGIGIGSPVRLAGIPIGRIVGHKLDPEYRAIVTMRLDLPNELPDDTAAKIQTDGLLGSKYIELVSLGGGYGTIAPGGRLDYSQDSVIVEDLLVKIVAMAKIKRGLDPDIPAAEQQKAKAASHPQAPPPGGAGDPGDPFGGGAVAPPEVNPFAPGPFEDDPPPPEPGVFSPDPGRDGVSEPPPAQDTRHDMRTNTLNDTAGTAPGAVTLASLPAVQADVEEGR | failed
MAESTIITGQFVRISQVPASLGERILARIIDYFLLFIYILATSYILGKLNIHAFSGSTFFLLFLFIYLPVLCYSLLCEVFNQGQSAGKKLMNIRVVKADGTTPSLSAYLLRWLLYGIDVTITGGLGVLVILLTKNSQRLGDLAAGTMVIKEKNYRKIQVSLDEFDYLTKGYHPSFPSAADLSLEQINVISKALELHHKDRTRHIAQLAPKVRALLSVDQTNINDEKFLQTVVRDYQYYALEEI | failed
MAETAPLRVQLIAKTDFLAPPDVPWTTDADGGPALVEFAGRACYQSWSKPNPKTATNAGYLRHIIDVGHFSVLEHASVSFYITGISRSCTHELIRHRHFSYSQLSQRYVPEKDSRVVVPPGMEDDADLRHILTEAADAARATYSELLAKLEAKFADQPNAILRRKQARQAARAVLPNATETRIVVTGNYRAWRHFIAMRASEHADVEIRRLAIECLRQLAAVAPAVFADFEVTTLADGTEVATSPLATEALEHHHHHH | not failed
MAETIQNFLTEYYSIAIPLSILINIIISLLGFIPSIFLTAINIQLFGVTNGTVISIAGEALGAIISFYIYRMGLQKFTHDKVNKYPKVERLLYVEGREAFLLVLSFRLIPFIPSSIVTLFAALGKMSLLSFSIASTIGKIPALLIEVYSAYHVMNGTNEAKWIVTIAGCIGLYYLWKKWRKK | failed
MAETSALPTGFGELEVLAVGMVLLVEALSGLSLNTLTIFSFCKTPELRTPCHLLVLSLALADSGISLNALVAATSSLLRRWPYGSDGCQAHGFQGFVTALASICSSAAIAWGRYHHYCTRSQLAWNSAVSLVLFVWLSSAFWAALPLLGWGHYDYEPLGTCCTLDYSKGDRNFTSFLFTMSFFNFAMPLFITITSYSLMEQKLGKSGHLQVNTTLPARTLLLGWGPYAILYLYAVIADVTSISPKLQMVPALIAKMVPTINAINYALGNEMVCRGIWQCLSPQKREKDRTK | failed
MAEVHVIGQIMGASGFSESSLFCKWGIHTGAAWKLLSGVREGQTQVDTPQIGDMAYWSHPIDLHFATKGLQGWPRLHFQVWSQDSFGRCQLAGYGFCHVPSSPGTHQLACPTWRPLGSWREQLARAFVGGGPQLLHGDTIYSGADRYRLHTAAGGTVHLEIGLLLRNFDRYGVEC | failed
MAEVRQNPVVIVPGVLFWDSLYEVMREALSTWIPAEKIAIVPVNLLDWLGFPPSPERSTNRVMAALDRTVRAMASRFPGEPVTIVAHSGGGTVAMIYLLERPFQGDVYAVNGLVGRLVTLGTPFHTHEHFAKIKTDFIFKHLGPEFFQKYQVVSVVSNQYKGSLDGGMIEKMCYMFYRGVTDDGNLAGDGVVPARSCFLDGAKNVTILECEHLPAPHTKWYGTKDGVEQWIEWL | failed
MAFDLQEQEQIDSLKAFWQQWGKLIGGAVLAVSLGYLGYKAYGMYQRGQSEKAAAAYEAVDDAVAAKDIAKLKSAAQQLQGEYAGTLYASRAALVLAKAAFDKNDPALAASQLEWVLKNGKDEELQAIARLRLASLLLDQKKFDGAIGELNQAHPAAFDAEFLELKGDVFVAKGDSNGARDAYKAALAKMQGESPNRQLVQTKLDALGG | failed
MAFNGAMSVGAQISDAVILAHSPKSCTHIMYQTISSAGRRTLFERGALLPVSLAPNLESTDMGEAEMIFGGMEKLEEKILELKARQPRAIVVVSACPAGIIGDDIGRTRRFSEPGLPVVTLKTDGNLAGDYLQGMLMAYTSLARQVIRLEHHHHHH | failed
